In the NTF2 design screens of Basanta et al. (2020) one finds protease stability score data, which are given here for 34 sequences.

The data set is described as follows: protease stability score; higher = more stable; yeast display proteolysis, trypsin and chymotrypsin.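 Further: log10 excess protease needed over predicted unfolded state with 0 meaning unfolded.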
With “DESKEAHTLAKKYVELVKKGDQEKMKTMFDPNAKAHIGDKTYHGMTDFVETLVEQAKRVDHQSVDVKSVEVDGDHIDVEVTVKYTYNGQNRSNVERFIVRNHNGKWRVKEWHDK”, the protease stability score is -0.145. With “DESKKAKKFMEEYKRAIETGDEDTAKNLADKDARVKVGDTTYTGMDHIRERVVTEAKQVDHITFEVKEMQTRPGRLKVRMDVIFDHDGRKDRKEVVLVFKDNNGKVLLLSASYQ” the figure was -0.041. The figure for “DESKQKQFEHFLEVVKTGNEEDLRKNMDKDVRVQIGDKQVHGRENIASELVRRQKEIKLHIRDMRIDVHNGRVQASVDVVDNINGKPTRYSYRFEYNIENGKLKSARIHIDPDQVRKVEE” is 1.03; for “DESKQRTFAEELLTAWETGNDDQARKLADPNVRFHIGDKEISGRENFAKWAKEVRDRVDHIRYEHIEIRGEKVRVNVQLEFDGKTERRVIVFNVHDGQVKSMDVKTT” it is 1.34; for “DESKVNEIVQKFVNAVREGNENHLRSLMDKDVTLHVGDRTWHGREQVASFMAHVAKRVDRIRIVHIEIHGDKANVNVRFDVNGTEVQLTMDIRIKNGRIMKIHMSPEDEKKLQG” it is 1.76. With “DESLADVFRRLLEAYRNGDEQKLRDNVDPNAKFNIGDKRFSGREQFARDMHKERKEIRVSIQLHEYDNQGEDVDFTFQFSAEVNGEPVHDTVRVEVHAHNGKIKRVHMHMSEKFQHQLRG” the figure was -0.027; with “DESLAEQWMRDIKSNNEERFRRYVDPNVHADVGNFKVHGRHDLVEQLRKLLEQVDHLDYHSVSADGDDVTVDVVIDVNGNTVRYELIVRFHNGQAHSLQMHVTNPDQDRQLHEVVK”, -0.013; with “DESLEDMARQLNTALQTNNPESVKEMFDKNARLEVGDKTWKGREHIDQWANRLRDEIRYEVRRFDLRVHGDKIEVNVHEEIQINGRPKSVSYSYTMRAHNGRIKHARYQPDPDAERRKKK”, 0.031.

Take “DESLEERLDTLRKVEEQGDEDTAREQADPNVKIVVGDRRVHGMDEQLEELRRRVKEARVTIESLSVDAHGDKVDVKVRLTFTIDGRPASVNLHQHYQLQNGKFKHVEARFSEEDRDELQT”: the protease stability score amounted to 0.846. The figure for “DESLHRWYERLQEALEHGDEDRLRKNADKDVQVDVGDKRVHGSEHYAHELVRESREMDFHIHRMEVSVTGNRITVDYVYDREHNGTPQSKRVQERYQAHNGKLKRASVQETD” is -0.093; for “DESLMKVAQEVHDAWNQGDPTKLQENFDKDAEIQVGDKQIHGREDATRELDRKKKQQRFEVQVTSMTAQNGDVKVDARFHFKHNGRPDERRFKLTINAENGRIQEASIDQTK” it is -0.151; for “DESLQHMAEEMLEVWQTGDKERAATMMDKDARVRVGDHTVRGRESLQKNIETEKEQMRVQIRHVDARVHNGRVDVKVEVELDHNGKPQRVVYNIDFRAHNGRVQEIHIQEDG” it is -0.181.

Sequence “DESLRKLLERIWRALTSGDPDELRKLADEDAKFQIGDKRINGMNEAAERWATRVRQLRVRIEDVKQHVEGDKVEAHLDVVREKNGQPQKHEEHVRMRAEGDRAKELVIQISQ” displayed a protease stability score of 0.031. The figure for “DESLRSKAEEFLKAIEHGDPDEASRQLDPNARFEIGDKEITGRETFDRTMHETRNQMRLEVKSYDARASNGRVHMEVRFQATHNGQPQDNREVQDFQFSNGRIERVSVEKDS” is -0.463; for “DESLVEILKKLAKAFNENDPDHLVKLFDEDARLDYGDTSVHGREQIKRLMEDWKRRMTVKIRVNHIDVKNGRAQMKADLTIRHNGKPDTNKVEVELHAHNGRNKEVVFERTK” it is 0.279; for “DESMQKEVHDFLKAQMTNNEDQLRRQADPNARFVYGNKTLHGMDQAAKHLVKLYREATFRIESVSIDAQGDKADIKQTFIVDINGKPDRDTADIKIKFHNGTIKEVNIQVDEEKERKIRS” it is -0.218. With “DESNREVYQKLLNAQTKGDEETAKELADPNASVQIGDKQIHGMDQYVKQMTRDKRRARVRIRDVRVDVQGDNIRVSAHFQEDHNGKPDERTMTQSYKVENGKMKSASVHSLS” the figure was -0.124. “DESQAEALHEVLQAERTNDPKKVEEQMDPHVNIVIGDKTYHGRDRIREDVKRKIDEMRVHVESVRFDEQGDKARAEATLRYNHNGRPSSKKIVIQMKAENGQIKTMRVHDTK”: the protease stability score was -0.646. Turning to “DESQAKEFVDNFKTNNREELQKQVDKDAKMIVGNKEYHGEEQVQDALRDLNEEVDHLTIKSVELKGNSVTIYFIIVINGTRMTVHVVAVFHNGRVKKEVWTATDEDDKRKIDQVVG”, the protease stability score was 0.281.

The sequence “DESQHQSLAKNLVRIFEEGDEDDVRKLADKDARLEVGDHELRGREQVAKFYKRVRDRIDELEIRDVHVQGERVSVHVVVRYNGRHVDFKINIVAHNGRITRVRVDPDRFRQLHS” returned a protease stability score of 1.64. With “DESQLELVKELLDVLQTGNPDEARQLVDKDVNIRIGDRVIHGREQLQSHVEKVKREQQVHVNITDMKVKGDKIKVVAQYKNHHNGQPSHNKMVLDAEVNGDKIHRMEYKSQS” the figure was -0.453. With “DESQQKHLTRLLEDNDFDRLAELADKHVRVEYGDQSYQGRETFQEMQEKLKKRADHLTYRSIDNQGDKIKVDFVLNVNGKDVRLQFDFRFNNGHIKEMTITATSEENLHKFEEALS” the figure was -0.094; with “DESQVDEAKKMAKVWEDGDPDQLRRMADPNAKMHIGDKDIRGHTEATRWVRHLSEHMRQRLDSVRVDTEPNRAEAKIQLTVDVNGKPDRYTAHLNMVVDNGRVRKLEVRFDEEDKKRRQS”, -0.139. Turning to “DESRKAREYMDKFKEIMDTGDPDKLRNLVPPDVTMQYGDRSLKGREEFVEHLQELLERADHVDVTVVDVKQDGDQLHFEVRVTYEENGERREYTFVFVAIVQGDKVRVKEMREK”, the protease stability score is 0.065.

For “DESVENTVTEILEAEQQNNEEELRRLADPNAEVRVGEKTIHGMDEAVHQIAHELKQQRVEYSDMKISVNNGRARIDVEVEVEKNGRPHTSHYERTIEMHNGRMTHMEQRDDG”, the protease stability score is -0.524. The figure for “DESVKERMKRILETGDWKKLVEMADEDASVKVGEKEFHGREQVSDFFKELQDQADTQEIKHVSVHGEHVVNTMVIRFNGKEVHLVLTVQLTNGKIHSASVKFTSEEHHKIMLRAIS” is 0.257; for “DESVLEMAERIIEAFNNGDPERAVNQADPNVKITVGDKSITGREDLRRELEKQLKEQEQHIQVLRVTDHNGQAQMDIRMTSEKNGNPDHRRATVQFHATNGKLQTMRVDQRG” it is -0.599.

For “DESVRRNFEDLLRAEETGDPDRVMDLVDPNARIQVGDKYLQGREQIDETMERHKSEIRFSIDRLSATDHNGVVDVTMSMKKNVNGKPKKFRAEVNVKAHNGKLKLLDMKIDG”, the protease stability score was -0.284. The figure for “DESVTEQANKMLDNIEKNNPEKVREQVDPNAKLQIGDKTLSGREHVQKQVEREMKDISVTRDLKSVNVRNGRAVFDMTVDFDVNGKPIHAHQVMEVQATNGRIKSVTYKIDTEELRKIDK” is -0.499.

Regarding “DETAARDVEELLTHVKTNNPENVVKLADPNAKAKIGDQTVKGREELTKQMTKELRHQRMSVEIKDYKVHGNKVVIDAEFTYNHNGRPQKKDVEIYVVFRGEKIEKFVWRTDG”, the protease stability score stood at 0.627.

The sequence “DETAERLEHQLKSALETGDEESAKKQFDPNVKFQYGDKVIHGMENAIERIVKRLKELHVSVELKSMHVEGNNIQADLVATENHNGQPRTRRFTLHVTWRNGRIQEIRQQDTK” registered a protease stability score of 1.31.

In turn, “DETAISVAKTMFEAMESNDPDEVRRQADPNATFVIGDKNYHGMETYAKEVKKRNDKIDVQLQDMDITDQGEDADIKQVAVFTHDGRPKKVVIHWDISVRNGRIKFVHADQRG” showed a protease stability score of -0.4. With “DETAKKHFEELMKVWKHGDFRRAQELLDPNVRVVIGDQQFHGREDVAKKIAEHLHRMEVEIKDYRVKNDGEKIHIEVDAVFERNGRPERRRYVAVYRVHNGRFKEMSQQEDK” the figure was 1.05. “DETAKKNVELYVQAFEDNDERKLNHMMDPNAHFRIGDRNVHGRDQVKDEVEKRRKEQSVKFKDVKVDVQGDKATIEIRWVVDKNGEPTEDVHKVDLKIHNGRAKYMQWDSVR” gave a protease stability score of -0.07.
